Source: patent US20230203467A1

Assays:
[1] = target: VEGFR-1 on transfected endothelial cells (PAE/VEGFR-1) (UniProt P17948); test: cell-based or functional assay
[2] = target: VEGFR-2 receptor on transfected endothelial cells (PAE/VEGFR-2) (UniProt P35968); test: cell-based or functional assay

UniProt P17948, sequence (P17948 27-1338 limits assumed): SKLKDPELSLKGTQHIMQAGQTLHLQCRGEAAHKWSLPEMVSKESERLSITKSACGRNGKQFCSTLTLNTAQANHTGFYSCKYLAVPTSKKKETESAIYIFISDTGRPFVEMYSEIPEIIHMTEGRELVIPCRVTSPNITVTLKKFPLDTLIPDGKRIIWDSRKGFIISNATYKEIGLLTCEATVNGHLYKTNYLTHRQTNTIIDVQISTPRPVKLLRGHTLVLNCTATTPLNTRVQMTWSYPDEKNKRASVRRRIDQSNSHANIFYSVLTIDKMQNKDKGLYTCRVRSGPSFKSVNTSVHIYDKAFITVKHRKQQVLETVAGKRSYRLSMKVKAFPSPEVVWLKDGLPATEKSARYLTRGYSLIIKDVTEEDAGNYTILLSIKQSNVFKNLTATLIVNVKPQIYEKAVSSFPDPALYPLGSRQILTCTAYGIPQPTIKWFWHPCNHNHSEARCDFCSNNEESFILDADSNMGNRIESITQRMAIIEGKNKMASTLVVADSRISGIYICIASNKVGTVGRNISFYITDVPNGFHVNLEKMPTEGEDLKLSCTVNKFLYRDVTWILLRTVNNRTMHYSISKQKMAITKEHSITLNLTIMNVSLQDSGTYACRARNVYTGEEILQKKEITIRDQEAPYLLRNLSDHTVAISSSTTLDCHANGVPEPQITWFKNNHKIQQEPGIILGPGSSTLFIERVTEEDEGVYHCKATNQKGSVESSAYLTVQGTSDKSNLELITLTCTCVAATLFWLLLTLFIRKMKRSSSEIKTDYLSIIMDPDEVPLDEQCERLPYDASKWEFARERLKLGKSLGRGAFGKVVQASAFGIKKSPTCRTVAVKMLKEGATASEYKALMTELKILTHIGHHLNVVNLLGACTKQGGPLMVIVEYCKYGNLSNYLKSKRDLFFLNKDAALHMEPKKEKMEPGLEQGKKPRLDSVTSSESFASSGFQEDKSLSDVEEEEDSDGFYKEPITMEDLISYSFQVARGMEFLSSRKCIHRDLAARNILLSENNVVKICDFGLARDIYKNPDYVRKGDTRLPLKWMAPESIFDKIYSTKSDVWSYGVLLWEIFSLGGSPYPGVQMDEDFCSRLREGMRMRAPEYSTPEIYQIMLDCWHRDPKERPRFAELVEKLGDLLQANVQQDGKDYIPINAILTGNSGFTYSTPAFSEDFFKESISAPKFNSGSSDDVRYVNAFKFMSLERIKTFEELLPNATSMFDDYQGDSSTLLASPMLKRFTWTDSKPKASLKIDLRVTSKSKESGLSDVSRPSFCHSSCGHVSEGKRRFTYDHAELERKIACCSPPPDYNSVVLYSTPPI

| IC50 (nM) on PEA/VEGFR-1 cells, construct pre-incubated in FBS (4 h) [1] [nM] | IC50 (nM) on PEA/VEGFR-1 cells, construct pre-incubated in PBS (4 h) [1] [nM] | IC50 (nM) on PEA/VEGFR-2 cells, construct pre-incubated in FBS (4 h) [2] [nM] | IC50 (nM) on PEA/VEGFR-2 cells, construct pre-incubated in PBS (4 h) [2] [nM] | Substance | IC50 nM, cytotoxicity on PAE/VEGFR-1 (-) control cells [1] [nM] | IC50 nM, cytotoxicity on PAE/VEGFR-2 (+) cells [2] [nM] |
| --- | --- | --- | --- | --- | --- | --- |
| > 100 | > 100 | 39 | 8 | EA-GrB/VEGF121 (from UniProt P15692 27-147) | – | – |
| – | > 100 | – | 5 | EAPVPN-GrB/VEGF121 (from UniProt P15692 27-147) | – | – |
| > 100 | > 100 | > 100 | 4 | GrB/VEGF121 (from UniProt P15692 27-147) | > 1000 | 15.3 |
| – | > 100 | – | 8 | PVPN-GrB/VEGF121 (from UniProt P15692 27-147) | – | – |
| > 100 | > 100 | 63 | 8 | LA-GrB/VEGF121 (from UniProt P15692 27-147) | – | – |
| > 100 | > 100 | 67 | 2 | LP-GrB/VEGF121 (from UniProt P15692 27-147) | – | – |
